Data as given in the supplement of paper PMC11316812.
± gives the standard deviation of the averaged measurements.

Experiments:
MCF7 = experiment: percentage of EdU-negative (G0-arrested) nuclei per well, 72 h; higher = more G0 arrest; conditions: reference: sequence is the full UniProt precursor, the tested protein was the secreted form or ectodomain
hTERT-HMEC = experiment: as above; conditions: reference: sequence is the full UniProt precursor, the tested protein was the secreted form or ectodomain
[1] = protein concentration 0.00775 µM
[2] = protein concentration 0.0775 µM
[3] = protein concentration 0.0357143 µM
[4] = protein concentration 0.357143 µM
[5] = protein concentration 0.0270475 µM
[6] = protein concentration 0.270475 µM
[7] = protein concentration 0.0225 µM
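Note: secreted proteins added to cultured cells, EdU pulse at the end, nuclei found by Hoechst imaging, EdU status from nuclear versus surrounding ring intensity ratio, PBS as neutral control.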

MAQSRVLLLLLLLPPQLHLGPVLAVRAPGFGRSGGHSLSPEENEFAEEEPVLVLSPEEPGPGPAAVSCPRDCACSQEGVVDCGGIDLREFPGDLPEHTNHLSLQNNQLEKIYPEELSRLHRLETLNLQNNRLTSRGLPEKAFEHLTNLNYLYLANNKLTLAPRFLPNALISVDFAANYLTKIYGLTFGQKPNLRSVYLHNNKLADAGLPDNMFNGSSNVEVLILSSNFLRHVPKHLPPALYKLHLKNNKLEKIPPGAFSELSSLRELYLQNNYLTDEGLDNETFWKLSSLEYLDLSSNNLSRVPAGLPRSLVLLHLEKNAIRSVDANVLTPIRSLEYLLLHSNQLREQGIHPLAFQGLKRLHTVHLYNNALERVPSGLPRRVRTLMILHNQITGIGREDFATTYFLEELNLSYNRITSPQVHRDAFRKLRLLRSLDLSGNRLHTLPPGLPRNVHVLKVKRNELAALARGALVGMAQLRELYLTSNRLRSRALGPRAWVDLAHLQLLDIAGNQLTEIPEGLPESLEYLYLQNNKISAVPANAFDSTPNLKGIFLRFNKLAVGSVVDSAFRRLKHLQVLDIEGNLEFGDISKDRGRLGKEKEEEEEEEEEEEETR [Q7Z5L7]
percentage of EdU-negative (MCF7; [1]): 24.5 ± 1.1% | percentage of EdU-negative (MCF7; [2]): 23.2 ± 0.88% | percentage of EdU-negative (hTERT-HMEC; [1]): 4.64 ± 0.6% | percentage of EdU-negative (hTERT-HMEC; [2]): 5.72 ± 1.3%

MAQTNSFFMLISSLMFLSLSQGQESQTELPNPRISCPEGTNAYRSYCYYFNEDPETWVDADLYCQNMNSGNLVSVLTQAEGAFVASLIKESSTDDSNVWIGLHDPKKNRRWHWSSGSLVSYKSWDTGSPSSANAGYCASLTSCSGFKKWKDESCEKKFSFVCKFKN
percentage of EdU-negative (MCF7; [3]): 27 ± 1.8% | percentage of EdU-negative (MCF7; [4]): 24.6 ± 0.83% | percentage of EdU-negative (hTERT-HMEC; [3]): 5.51 ± 1.2% | percentage of EdU-negative (hTERT-HMEC; [4]): 5.35 ± 1.6%

MAQTSSYFMLISCLMFLSQSQGQEAQTELPQARISCPEGTNAYRSYCYYFNEDRETWVDADLYCQNMNSGNLVSVLTQAEGAFVASLIKESGTDDFNVWIGLHDPKKNRRWHWSSGSLVSYKSWGIGAPSSVNPGYCVSLTSSTGFQKWKDVPCEDKFSFVCKFKN
percentage of EdU-negative (MCF7; [5]): 25 ± 1.8% | percentage of EdU-negative (MCF7; [6]): 23.9 ± 0.49% | percentage of EdU-negative (hTERT-HMEC; [5]): 6.23 ± 0.99% | percentage of EdU-negative (hTERT-HMEC; [6]): 6.73 ± 0.84%

MAQYLSTLLLLLATLAVALAWSPKEEDRIIPGGIYNADLNDEWVQRALHFAISEYNKATKDDYYRRPLRVLRARQQTVGGVNYFFDVEVGRTICTKSQPNLDTCAFHEQPELQKKQLCSFEIYEVPWENRRSLVKSRCQES
percentage of EdU-negative (MCF7; [7]): 25.5 ± 1.2% | percentage of EdU-negative (MCF7; protein concentration 0.225 µM): 25 ± 0.45% | percentage of EdU-negative (hTERT-HMEC; [7]): 5.26 ± 0.4% | percentage of EdU-negative (hTERT-HMEC; protein concentration 0.225 µM): 5.09 ± 0.29%

MARAAALLPSRSPPTPLLWPLLLLLLLETGAQDVRVQVLPEVRGQLGGTVELPCHLLPPVPGLYISLVTWQRPDAPANHQNVAAFHPKMGPSFPSPKPGSERLSFVSAKQSTGQDTEAELQDATLALHGLTVEDEGNYTCEFATFPKGSVRGMTWLRVIAKPKNQAEAQKVTFSQDPTTVALCISKEGRPPARISWLSSLDWEAKETQVSGTLAGTVTVTSRFTLVPSGRADGVTVTCKVEHESFEEPALIPVTLSVRYPPEVSISGYDDNWYLGRTDATLSCDVRSNPEPTGYDWSTTSGTFPTSAVAQGSQLVIHAVDSLFNTTFVCTVTNAVGMGRAEQVIFVRETPNTAGAGATGGIIGGIIAAIIATAVAATGILICRQQRKEQTLQGAEEDEDLEGPPSYKPPTPKAKLEAQEMPSQLFTLGASEHSPLKTPYFDAGASCTEQEMPRYHELPTLEERSGPLHPGATSLGSPIPVPPGPPAVEDVSLDLEDEEGEEEEEYLDKINPIYDALSYSSPSDSYQGKGFVMSRAMYV
percentage of EdU-negative (MCF7; [7]): 21.9 ± 1.3% | percentage of EdU-negative (MCF7; protein concentration 0.225 µM): 22.8 ± 0.43% | percentage of EdU-negative (hTERT-HMEC; [7]): 4.75 ± 0.29% | percentage of EdU-negative (hTERT-HMEC; protein concentration 0.225 µM): 5.33 ± 0.83%

MARAGPAWLLLAIWVVLPSWLSSAKVSSLIERISDPKDLKKLLRTRNNVLVLYSKSEVAAENHLRLLSTVAQAVKGQGTICWVDCGDAESRKLCKKMKVDLSPKDKKVELFHYQDGAFHTEYNRAVTFKSIVAFLKDPKGPPLWEEDPGAKDVVHLDSEKDFRRLLKKEEKPLLIMFYAPWCSMCKRMMPHFQKAATQLRGHAVLAGMNVYSSEFENIKEEYSVRGFPTICYFEKGRFLFQYDNYGSTAEDIVEWLKNPQPPQPQVPETPWADEGGSVYHLTDEDFDQFVKEHSSVLVMFHAPWCGHCKKMKPEFEKAAEALHGEADSSGVLAAVDATVNKALAERFHISEFPTLKYFKNGEKYAVPVLRTKKKFLEWMQNPEAPPPPEPTWEEQQTSVLHLVGDNFRETLKKKKHTLVMFYAPWCPHCKKVIPHFTATADAFKDDRKIACAAVDCVKDKNQDLCQQEAVKGYPTFHYYHYGKFAEKYDSDRTELGFTNYIRALREGDHERLGKKKEEL
percentage of EdU-negative (MCF7; protein concentration 0.019 µM): 22.8 ± 0.61% | percentage of EdU-negative (MCF7; protein concentration 0.19 µM): 22.5 ± 0.95% | percentage of EdU-negative (hTERT-HMEC; protein concentration 0.019 µM): 4.5 ± 0.56% | percentage of EdU-negative (hTERT-HMEC; protein concentration 0.19 µM): 6.73 ± 0.2%
